The record followed here is patent publication US7737158B2, “Processes for regulating blood glucose in a mammal” (Washington University, priority 2005, dated 2010).

In one data set the target is T1, mouse Nmnat (Mus musculus, UniProt Q9EPA7).
T1 construct: Polyclonal rabbit antisera were produced against the purified full-length His-tagged Nampt and Nmnat recombinant proteins; made in house; host or cells: E. coli BL21(DE3)pLysS
Nature of the data set: Enzyme-coupled fluorometric assay, kinetic characterization of recombinant Nmnat. It is filed as biochemical. As for the experimental part:
(§1) Enzymatic activities of recombinant Nampt and Nmnat proteins were measured by an enzyme-coupled fluorometric assay (see, e.g., FIG. 4B). In this enzyme-coupled reaction, NAD is converted to NADH by alcohol dehydrogenase, and the fluorescence of NADH is detected in a fluorometer. To establish this assay system, optimal reaction conditions for Nmnat were initially examined by varying ATP and Mg^2+ concentrations and pH of the reaction buffer. The resultant reaction buffer for Nmnat contained 50 mM HEPES [pH 7.4], 0.02% BSA, 12 mM MgCl2, 2 mM ATP, 1.5% ethanol, and 30 μg/ml alcohol dehydrogenase to convert NAD to NADH. To determine the kinetic parameters for Nmnat, 30 ng of purified His-tagged Nmnat and varying concentrations of NMN were added to 1 ml of the reaction buffer. The reactions were run at 37° C. and quenched at six time points by the addition of 250 μl of 0.5 M EDTA. The production of NADH was measured by excitation at 340 nm and emission at 460 nm in a fluorometer. For kinetic characterization of Nampt, 500 ng of His-tagged Nampt and varying concentrations of nicotinamide were reacted at 37° C. in 100 μl of a buffer containing 50 mM Tris-HCl [pH 7.5], 0.02% BSA, 12 mM MgCl2, 2.5 mM ATP, 10 μg/ml His-tagged Nmnat, 0.4 mM phosphoribosyl pyrophosphate (PRPP), 1.5% ethanol, and 30 μg/ml alcohol dehydrogenase. NADH production was measured continuously in a fluorometer.
(§2) By using this enzyme-coupled fluorometric assay, kinetic parameters of purified recombinant mouse Nampt and Nmnat for nicotinamide and NMN, respectively, were determined (see, e.g., Table 1). The Lineweaver-Burk plots for these two enzymes are shown, for example, in FIGS. 11A and 11B. […] The Km and Vmax of mouse Nmnat are consistent with previously reported values for human NMNAT-1 (Emanuelli et al., J. Biol. Chem. (2001) 276, 406-412).

The subject of another data set is wild type males. Nature of the data set: Blood glucose after intraperitoneal injection of recombinant Nampt in fed wild type mice. It is filed as in vivo, mouse. The settings on record: 1000 pmoles intraperitoneally, fed wild type males, 0, 30, 60 min. As for the experimental part: If the NAD biosynthetic activity of Nampt is responsible for the phenotypes observed in Nampt^+/− mice, the administration of NMN, a product of the Nampt enzymatic reaction, should be able to correct their problems. To test this possibility, the same Nampt^+/− mice that were used for IPGTTs were injected with NMN at a dose of 500 mg/kg body weight intraperitoneally ˜14 hrs prior to IPGTTs. As a control, PBS was injected to the mice ˜14 hrs before conducting previous IPGTTs. […] Because these findings completely contradict the conclusion by Fukuhara et al., the reproducibility of the insulin-mimetic activity of this protein was examined. Here, 1000 pmoles of the bacterially produced recombinant protein of mouse His-tagged Nampt were injected intraperitoneally to fed wild type males. Blood glucose levels were monitored with a glucometer at 0, 30, and 60 min time points after injection.

Data set [1] addresses T2, mouse Nampt (Mus musculus, UniProt Q99KQ4). The experiment in a line: Enzyme-coupled fluorometric assay, kinetic characterization of recombinant Nampt. Set-up: expressed in transfected cells; cell extracts or culture supernatant, anti-FLAG immunoprecipitates. It is filed as biochemical. As for the experimental part: as §1, §2
Data set [2] addresses T2, mouse Nampt. Nature of the data set: HPLC detection of Nampt reaction products. The conditions noted are these: 37° C. It is filed as biochemical. Set-up: expressed in transfected cells; cell extracts or culture supernatant, anti-FLAG immunoprecipitates. The method, then: High performance liquid chromatography was used to detect Nampt reaction products. HPLC was performed with Waters 515 pumps and a 2487 detector (Waters, Mass.) with a Supelco LC-18-T column (15 cm×4.6 cm; Supelco, Pa.). The Nampt reaction was conducted at 37° C. for 15 min in 500 μl of reaction buffer (50 mM Tris-HCl [pH 7.5], 10 mM MgCl2, 50 mM nicotinamide, 0.2 mM PRPP) with 50 μg of the recombinant Nampt protein. The reaction was terminated by adding 125 μl of 1 M HClO4. Protein was then precipitated at 18,000 g, and 500 μl of the supernatant was neutralized with 40 μl of 3 M K2CO3. After centrifugation, 100 μl of sample was mixed with 400 μl of Buffer A (50 mM K2PO4/KHPO4, pH 7.0) and loaded into the HPLC system. The products from Nampt reaction were monitored by absorbance at 261 nm.

Data set [3] addresses T2, mouse Nampt. Nature of the data set: Enzyme-coupled fluorometric assay of immunoprecipitated Nampt-FLAG and recombinant Nampt. It is filed as biochemical. Set-up: expressed in transfected cells; host or cells: mouse NIH3T3 fibroblasts and mouse HIB-1B preadipocytes (differentiated), stably transfected with pCXN2-Nampt-FLAG; cell extracts or culture supernatant, anti-FLAG immunoprecipitates. The conditions noted are these: NMN synthesis, 55 min at 37° C., pH8.5; Nampt amount quantified by Western blotting. The method, then: For immunoprecipitation of intracellular Nampt, whole cell extracts were prepared with ice-cold immunoprecipitation (IP) buffer (phosphate buffer saline [pH 7.4], 0.5% NP-40, 1 mM EDTA,1 mM NaF, 10 μM Trichostatin A, 10 mM nicotinamide, 0.5 mM DTT, protease inhibitor cocktail (Roche)) and mixed with agarose beads conjugated with the mouse monoclonal M2 anti-FLAG antibody (F2426, Sigma) for 3-4 hours at 4° C. For immunoprecipitation of extracellular Nampt, HIB-1B culture supernatants were collected after incubating differentiated HIB-1B cells overnight with DMEM without fetal bovine serum but supplemented with 1 μg/ml insulin and 1 nM triodothyronine, filtered through a 0.22-μm PES membrane, concentrated with Amicon Ultra-15 columns (Millipore, MA), and mixed with anti-FLAG beads for 3-4 hours at 4° C. Immunoprecipitates were washed twice with the IP buffer and twice with PBS.
Immunoprecipitates on anti-FLAG beads were incubated in enzymatic reaction buffer (50 mM Tris-HCl (pH8.5), 100 mM NaCl, 0.25 mM Nicotinamide, 10 mM MgSO4, 1.5% Ethanol, 0.5 mM PRPP, 2.0 mM ATP) for 55 min at 37° C. After this reaction, mouse recombinant nicotinamide mononucleotide adenylyltransferase and yeast alcohol dehydrogenase (Sigma) were added at 10 μg/ml as the final concentration for each, and the mixture was incubated for 5 min at 37° C. Supernatants were then collected by spinning down anti-FLAG beads, and autofluorescence of NADH was measured in a Perkin Elmer LS 50B fluorometer (excitation: 340 nm; emission: 460 nm). Immunoprecipitates bound on anti-FLAG beads were extracted with Laemmli's sample buffer, boiled for 5 minutes, and analyzed by Western blotting with anti-Nampt antibodies. The amounts of Nampt used for enzymatic reactions were quantitated compared to the standards of mouse recombinant Nampt.
The immunoprecipitates from the HIB-1B culture supernatants were subjected to enzyme-coupled fluorometric assays (see Revollo et al., J. Biol. Chem., (2004)279, 50754-50763) to compare enzymatic activity of the intracellular and extracellular forms of Nampt. […] The Nampt enzymatic activity of the bacterially produced recombinant Nampt and the intracellular Nampt-FLAG® immunoprecipitated from HIB-1B and NIH3T3 cellular extracts were also measured and their kcat values calculated (see FIG. 16E). […] It is believed that a post-translational modification may be responsible for the altered enzymatic activity of extracellular Nampt produced by brown adipocytes. […] Despite the extensive mass spectrometric analysis of extracellular Nampt, the precise nature of the modification is currently unknown. Taken together, these findings provide strong evidence that Nampt functions as an NAD biosynthetic enzyme both intra- and extracellularly.
In general terms: A western blot detects proteins with antibodies after separation by electrophoresis.

[4] abbreviates: purified His-tagged recombinant mouse Nmnat, substrate NMN.
The mark [5] stands for this setting: purified His-tagged recombinant mouse Nampt, substrate nicotinamide.

“Also recorded” adds a separate entry of the source.

B1: Nmnat: Bacterially produced, His-tagged recombinant mouse nicotinamide/nicotinic acid mononucleotide adenylyltransferase (protein, UniProt Q9EPA7 1-285, looked up)
Nicotinamide/nicotinic acid …: MDSSKKTEVVLLACGSFNPITNMHLRLFELAKDYMHATGKYSVIKGIISPVGDAYKKKGLIPAHHRIIMAELATKNSHWVEVDTWESLQKEWVETVKVLRYHQEKLATGSCSYPQSSPALEKPGRKRKWADQKQDSSPQKPQEPKPTGVPKVKLLCGADLLESFSVPNLWKMEDITQIVANFGLICITRAGSDAQKFIYESDVLWRHQSNIHLVNEWITNDISSTKIRRALRRGQSIRYLVPDLVQEYIEKHELYNTESEGRNAGVTLAPLQRNAAEAKHNHSTL
modifications: His tag
notes: Bacterially produced, His-tagged recombinant mouse nicotinamide/nicotinic acid mononucleotide adenylyltransferase
Usually Vmax stands for the rate approached at saturating substrate. A word on the kcat: it is the maximal rate divided by the concentration of active sites. As a reminder, the Km is the substrate concentration at which the rate is half of its maximum. For the molecule B1, the “synthesis of NAD from NMN and ATP” value in the data set with mouse Nmnat (isolated reactions) is reported as “catalyzed the synthesis of NAD”. Also, in the data set with mouse Nmnat (setting [4]), the Vmax was determined as 31.4 µmol/min/mg and the kcat is 20.0 s⁻¹. Moreover, the Km with mouse Nmnat (purified His-tagged recombinant mouse Nmnat, substrate NMN, 37° C.) is 20.1 µM.

B2: Nampt: Bacterially produced, His-tagged recombinant mouse nicotinamide phosphoribosyltransferase (protein)
chain: MNAAAEAEFNILLATDSYKVTHYKQYPPNTSKVYSYFECREKKTENSKVRKVKYEETVFYGLQYILNKYLKGKVVTKEKIQEAKEVYREHFQDDVFNERGWNYILEKYDGHLPIEVKAVPEGSVIPRGNVLFTVENTDPECYWLTNWIETILVQSWYPITVATNSREQKKILAKYLLETSGNLDGLEYKLHDFGYRGVSSQETAGIGASAHLVNFKGTDTVAGIALIKKYYGTKDPVPGYSVPAAEHSTITAWGKDHEKDAFEHIVTQFSSVPVSVVSDSYDIYNACEKIWGEDLRHLIVSRSTEAPLIIRPDSGNPLDTVLKVLDILGKKFPVTENSKGYKLLPPYLRVIQGDGVDINTLQEIVEGMKQKKWSIENVSFGSGGALLQKLTRDLLNCSFKCSYVVTNGLGVNVFKDPVADPNKRSKKGRLSLHRTPAGNFVTLEEGKGDLEEYGHDLLHTVFKNGKVTKSYSFDEVRKNAQLNIEQDVAPH
As for B2, the figures for the blood glucose levels entry in the data set on wild type males (listed as recombinant Nampt) and with wild type males (listed as recombinant Nampt protein) were “no significant effect” and “no decrease”, respectively. Moreover, in the data set with mouse Nampt [1] (Nampt (nicotinamide) versus Nmnat (NMN)), the “catalytic efficiency of Nampt, fold less than that of Nmnat” value is about 46 fold. For the same molecule, the Vmax with mouse Nampt [1] (setting [5]) is 0.021 µmol/min/mg. For the same molecule, the kcat with mouse Nampt [1] (setting [5]) worked out at 0.020 s⁻¹; with mouse Nampt [3], 0.035 s⁻¹. For the same molecule, in the data set with mouse Nampt [1] (purified His-tagged recombinant mouse Nampt, substrate nicotinamide, 37° C.), the Km was 0.92 µM. For the same molecule, the results for the “synthesis of nicotinamide mononucleotide (NMN) from nicotinamide and PRPP” value in the data set with mouse Nampt [2] and with mouse Nampt [2] (listed as mouse Nampt) were “robust synthesis” and “produced nicotinamide mononucleotide (NMN)”, respectively. The “synthesis of nicotinic acid mononucleotide (NaMN) from nicotinic acid and PRPP” value with mouse Nampt [2] (substrate specificity) is recorded as “failed to catalyze; also recorded: did not synthesize”.
